{"source": "a protein production outcome set (Wang et al. 2014)", "test": "label from the status in PepcDB records", "data": [{"sequence": "MEMIGGDDTDTEMYGALVTAQSLRLRHLHHCRENQCTSVLVKYIQAPVHLVWSLVRRFDQPQKYKPFISRCTVNGDPEIGCLREVNVKSGLPATTSTERLEQLDDEEHILGINIIGGDHRLKNYSSILTVHPEMIDGRSGTMVMESFVVDVPQGNTKDDTCYFVESLIKCNLKSLACVSERLAAQDITNSIATFCNASNGYREKNHTETNL", "values": [{"measurement": "protein production", "result": "failed"}]}, {"sequence": "MDVLIFNSWHWWTHTSGLQPWDYMREGNQLYKDMNRLVAYYKGLNTWARWINNNIVPSRTQVFFQGVSPVHYDGREWNEPLKSCNGQTQPFMGQRYPGGLPLGWVVVNKVLSRIRKPVHLLDLTTLSEYRKDAHPSLYNGISKDLDCSHWCLPGLPDTWNLLLYSSLTS", "values": [{"measurement": "protein production", "result": "failed"}]}, {"sequence": "MSINISELLQPITEQSPCGEDYSFSNEFHLIKKARTQDDVLLDQGDWVTELKQADWETVTSTSSNLLKTKTKDIRLLTWLSEGWANLYGFEGIYQGIELSHRLLDQFWNDIHPVVEDDDLDQRIALLQGLINQLPLLIKKTPLINTSPYYHLLNYENFLHHQNIRRKQSDEYEQLDGPSEIELFEQALFNTSKSFQYQNYQMFKHVVSQWQQLKDVLDRLMGVDAPSFAAIDSSLQDIDVNLRKIYKAEAFDTNPVATSSATASSHASETLSTEPMPTSNVNVNQPSFQPQTQNHIQNREQAIRVLQDISDYFQANEPHSPVSYMLQKTIKWSQMPLHEWLAQVIKDEHPLQLVQEALGVQPKNEYE", "values": [{"measurement": "protein production", "result": "failed"}]}, {"sequence": "CMPYRVEIFDTSHHSSSQCVGGMVVYENNAFQKNSYRRYHLKGSDEYTQMSELLTRRALDFAKEPPPNLWVIDGGRAQLNIALEILKSSGSFVEVIAISKEKRDSKAYRSKGGAKDIIHTPSDTFKLLPSDKRLQWVQKLRDESHRYAINFHRSTKLKNMKQI", "values": [{"measurement": "protein production", "result": "failed"}]}, {"sequence": "MNRFSRARSYISLVLFRKSSYVTSHIPWNQCFYTSLKSSLKPASVSVSSVHCYSSRSKTAKSKMSKSSVSVSDSDKEKDAFFVVRKGDIVGIYKDLIDCQAQVGSSVYDPPVSVYKGYSLLKDTEECLSTVGLKKPLYVFRALDLKEDMFGALTPCLFQDQLPSASMSVEKLAELEPSADTSYETCIIEFDGASKGNPGLSGAAAVLKTEDGSLIFKMRQGLGIATNNAAEYHGLILGLKHAIEKGYTKIKVKTDSKLVCMQMKGQWKVNHEVLSKLHKEAKQLSDKCLSFEISHVLRSLNSDADEQANMAARLSEGEVEVA", "values": [{"measurement": "protein production", "result": "failed"}]}, {"sequence": "MKSLIIGANGGVGQHLVRKLKARDVDFTAGVRKEEQVEALKADGIDATYIDVAKQSIDELIELFKSYDQILFSVGSGGSTGDDQTIIVDLDGAVKAIKASEQIDHQHFIMVSTYDSRREAFDASGDLKPYTIAKHYADDYLRHANLKYTIVHPGALTNEHETQQFNMSAQFENVQNPSITREDVAEVLVSVLTDEVLQGHEFQIINGDLSLLDATTKYLEE", "values": [{"measurement": "protein production", "result": "failed"}]}, {"sequence": "MFRKVLFPTDFSEGAYRAVEVFEKRNKMEVGEVILLHVIDEGTLEELMDGYSFFYDNAEIELKDIKEKLKEEASRKLQEKAEEVKRAFRAKNVRTIIRFGIPWDEIVKVAEEENVSLIILPSRGKLSLSHEFLGSTVMRVLRKTKKPVLIIKEVDENELAKTKGTSG", "values": [{"measurement": "protein production", "result": "not failed"}]}, {"sequence": "GSAEILVPEVYHGPGKRGTGFYNADQKINRDITIEFIKKMGIRNVLDGFGGTGIRGIRISKETDSAVTISEVSPDSYRLIRDNVERNGSQASVINDSFECVLQHGAYEYVDVDPYGSPVPYLDAALMGVKRNGFLGVTATDQSALTGSVPHKTRIRYDALIKNDTFRHEMGIRLLIGYMAKRAASLGRFIDPLISIWHGHYYRVFVRVRKGFEGAGRMMQNLGYVNKHNLLSGIYQDMDEGPVWKGNLQDNAVAEAVLASAGHKAFNPEENRLLFCDLTDIARARHTSLPDIESVIDALSSSGHAASRTMFSPTGIKTDASCDLVESLMMDTLHRRS", "values": [{"measurement": "protein production", "result": "failed"}]}, {"sequence": "MADIKRIALLSGGGDCPGLNAVIRAVTKAAINEYGYEVIGYVYGYRGLYNNDYIELTVDKVENIYKEGGTILYSSNKDNLFDYLVDDGHGGKVKKDVSDVGVENLKKAGVDVLVVLGGDGTLTSARDFARKGVNVIGIPKTMDNDLPATDLTYGFISASSVGTEFIDRLNTTAKSHHRVICCELMGRDAGWIALYAGMAGNASCILIPEIPFTIDSIVRHVEKRDKEGYPYTVIAVAEGAKYADGTKVIGKIVEDSPDPIRLGGIASKVADDLEKVIKNHEVRSVNPGHIIRGGDIQAYDRILSIRFGVKAVELIHEGKFGNVVTLKGEEMSYTSLEEVIGDAKFGKQKHVDPNGELVRAAKSIGICFGDD", "values": [{"measurement": "protein production", "result": "failed"}]}, {"sequence": "MSDVYNNEAFFKQYMKRRYRENSPNELIEKPAFFQLIGDVKGKKILDLGCGDAIFGKELLEKDCHSYTGIEGSELMYEKAKKQLENKNGIVHFLNLKDYTYPPATFDLVTSRLALHYIEHLPIIFQNVYETLKTNGTFTFSVQHPVITSSFESLQTSGKRTSWLVDDYFKTGKRVEPWIDQKVIKYHRTTEEYFTLLQQAGFTITNLKEATPNQTYFQSAEEYERRLRIPLFLLFSCRKLEHHHHHH", "values": [{"measurement": "protein production", "result": "failed"}]}, {"sequence": "MKLDLARKRPSLLARLWLRLGALLGRTLLLLLVIGLLGWALSSAWFAWHHRGPVAVQEQVPADEAARTQDIIQTAVRIVDQHREGTRYLRDAHAKAHGCVKAQVQVLNDLSPPLRQGVFATPGQTWQAVVRLSNGNAYPQFDSIRDARGMAIKLLDVPGQQLMASESQRREQDFVMFNHPNFFVSDVAEYQQNIAAQADGKKVGAFFPGWDPRTWQVRHLFIALATLSPAPASPTQTTYYSVSPYKFGNANAKFRVMPDPESCPAYSLPAQNQDLPNFLRSALTQQLSTDRVGACFVLQVQRQDPNRFMPIEDTSIEWKESDAPFETVARVTLPAQDFDTPAQNLACDNQSFNPWFGLEAHRPIGGINRLRKAVYEAVSDYRHSRNAEQ", "values": [{"measurement": "protein production", "result": "failed"}]}, {"sequence": "MFKALLPQSKQKLQHAKYFAKKMHQASASDQLQSHWHLQQWWILIAGFFLFGSVLVFAFTRPISSTKIEAEYLKEVDPQIYTLLNGEMLTPPPEVDESLISAAIVEANQLEQQYASQHSETNAPSASENLMHHNLIDTQFVDRKWDKMNPRYKQRLLMVFKIMKERYGYELVLLEGYRSPERQNLLSGNPNTTRARGYQSYHQFGLAADVAFKRNGKVVISERDPWAMRGYQLYGEVAESVGLTWGGRWKSIQDYGHTEYRMPGLRKTKEMAEQLIAEGQLTANAAS", "values": [{"measurement": "protein production", "result": "failed"}]}, {"sequence": "MAYDLWYWDGIPGRGEFVRLALEAGKIPYRDRAREPGEDMLDDMRRRRDTPPFAPPYLVADGMTIAQTANILLFLGVEHGLAPPDRAGRLWVNQLQLTIADLTAEAHDVHHPVAAGLYYEDQQDVALRRAADFRETRMPKFMQYFEQALDRPGGWLTDMGRWSYADLSLYHVVEGLLHAFPRRMRTLVHRYPRLMALHARVAELPELRGYLASDRRLPFGDGIFRHYPELDGA", "values": [{"measurement": "protein production", "result": "not failed"}]}, {"sequence": "MDVTVSTDDGYRVNNLGLMSSRQNYMIFGGFVAIAGIIIVLVGEKFKPSANSVKCPYCAELISAEAVKCKHCGSDVTPSKTIVSADDAEASDRLADVNVKLIAGVVLAVFAAIIGAIIFHRQ", "values": [{"measurement": "protein production", "result": "failed"}]}, {"sequence": "MRVKTIMTQNPVTITLPATRNYALELFKKYKVRSFPVVNKEGKLVGIISVKRILVNPDEEQLAMLVKRDVPVVKENDTLKKAAKLMLEYDYRRVVVVDSKGKPVGILTVGDIIRRYFAKSEKYKGVEIEPYYQRYVSIVWEGTPLKAALKALLLSNSMALPVVDSEGNLVGIVDETDLLRDSEIVRIMKSTELAASSEEEWILESHPTLLFEKFELQLPNKPVAEIMTRDVIVATPHMTVHEVALKMAKYSIEQLPVIRGEGDLIGLIRDFDLLKVLVKSKA", "values": [{"measurement": "protein production", "result": "not failed"}]}, {"sequence": "MTALPLSAVTVVSVCYNSDRLIRDLVTAIPDETPIILVDNGHTNTFADLPPHRNVIIVKLDHNLGFGRGCNAGADVAQTPWILFLNPDARLNPGAIEGLLQAAAQYPSAIAFNPRIYNEDGSPYFKRRSWLLPRQHYMKKGWPSADAVVPVLSGAALFVSKKSFDYIGGFDPSIFMYHEDDDLSLRLSALGELRFVRNSTVVHFAGYSSGRSPEIARFKAYHMAQSKIYAGQKHHRPFAKTSTLLQGCLLLLSPHVFFSARRRAKALGFLHGALAKIWSELLNAASTSSQKKTLEHHHHHH", "values": [{"measurement": "protein production", "result": "not failed"}]}, {"sequence": "MMTVVKGLVTFRPMFALVLLSALVGCASAPKKAPPPSSFDATMSRAEAEVTNGGPEQALKTFEDAGRADPTRKEPWVRIAQLQFDRANYARAIVAAQEVLQRDPNDLVADGVLTVAGFRIANQSLQRLQGRGALVSGTARKEAEMLASTLRATMGDDILQPDEPKKRKPVRNARRAAPPAAKDAAPPKQTPNASADPFQNLGGN", "values": [{"measurement": "protein production", "result": "failed"}]}, {"sequence": "MSYFDQDDKEVLAPNSDVIAATTTTATTATHGIEVATEFKPVEHPVEPLDNDLPIQCPLPEPSILNDGRIWKERVSASMRRKGDLQIVKDEAASESDGSAPKPPRPPQPNRSILPSLSAPEHNLLNLLEECNAMPPVTSKNG", "values": [{"measurement": "protein production", "result": "failed"}]}, {"sequence": "TGELEVVQQAVKEMNDPSQPNEEGITALHNAICGANYSIVDFLITAGANVNSPDSHGWTPLHCAASCNDTVICMALVQHGAAIFATTLSDGATAFEKCDPYREGYADCATYLADVEQSMGLMNSGAVYALWDYSAEFGDELSFREGESVTVLRRDGPEETDWWWAALHGQEGYVPRNYFGLFPRVKPQRSKV", "values": [{"measurement": "protein production", "result": "failed"}]}, {"sequence": "MAEQKNHNNELNVEDALTQSEAFLVKNKKAIIGAVVAVIVIVAGAILYKNFYAEPREEKAQAALFKSEQYFEQSAYEQALNGDSIGSIGFLKVADQFSGTKAANLAKAYAGICYQNLGKYEEAIKALDGFSGDDQMVAPAIQGAIGNCYAQLGQLDKATSALLKAADHADNSTLSPIFLLQAGEILMKQGKNEEAVKAFTKIKDKYFQSYQAMDIDKYIEQAKLLKK", "values": [{"measurement": "protein production", "result": "failed"}]}, {"sequence": "MKVLVFICGEGLGHTSRGIALGRELLAAGHEVYLGAYGYSKEFIERKGYKTVEIPPEIKLVGESGSLNLKRSIISTLKGGNVFGIFKVLSLLKEKKPDIVVSDSYFTGVVASKIRGIPVYLIVNQSNMETFFKNGGIALRTMGGIIKQFYSCIFRRVDRIVIPDFPMPYTVCRLNLAFEEKVSKNLFFSGPLTLKKFDDVKAEVLQKPHVLSLIGGFGYREPIFRKVIEVAKLDKSINYTLLSGPSLNPDVFSNLPENVTIKRFINDQFPYLKASDLVIAPGGHSTIMEALTFGVPVLSFPDINHSEQESNATVVDLAGYGKRLDYSASPEEILRSIKELLKDEKIHQKVEIMKKLSKDLNATATFKELLESNSKRSQKV", "values": [{"measurement": "protein production", "result": "failed"}]}, {"sequence": "MDDETLRLQFGHLIRILPTLLEFEKKGYEPSLAEIVKASGVSEKTFFMGLKDRLIRAGLVKEETLSYRVKTLKLTEKGRRLAECLEKCRDVLGS", "values": [{"measurement": "protein production", "result": "not failed"}]}, {"sequence": "MQFKNTPQRYGVVSAALHWLTALVVYGMFALGLWIVTLSYYDGWYHQAPEIHKSIGILLMMALIVRIIWRLYSPPPVALTSYSRLTRASAAAGHLLLYLLLFAIIISGYLISTADGKPISVFSWFEIPATLTDAGAQADIAGTLHLWFAWSLVIISLSHGVMALKHHFIDKDDTLKRMTGMSSSDYGAQK", "values": [{"measurement": "protein production", "result": "failed"}]}]}
